These results are taken from patent CN101228187A (UNIV RAMOT, dated 2008).

In the assay the target is MAP-PrP, multiple antigen peptide presenting amino acids 144-153 of human prion protein (human). The assay is described as follows: ELISA (Fig. 9).

B1: F2 scFv (scFv)
scFv: VQLLESGGGLVQPGGSLRLSCAASGFTFSGYWMHWVRQAPGKGLEWVSEISGSGDSTHYGDSVKGRFTISRDNSKNTLYLQMNSLRAEDTAVYYCARGRNGSLDYWGQGTLVTVSSGSAGGGGSGGGGSGGGGSDIVLTQPPSASGTPGQRVTISCSGTSSNIGADYDVHWYQQLPGKAPKLLIYDNNKRPSGVSDRFSGSKSGTSASLAISGLRSEDEADYYCAAWDSSLSSVVFGGGTQLTV
notes: also called TAR1; scFv F2
For B1, the binding result is on record as “no binding”.
